# Experimental data as given in PMC4536007, “Modulation of the Activity of Mycobacterium tuberculosis LipY by Its PE Domain” (PLoS ONE, 2015).
# B1: PE domain of LipY (domain or fragment)
# chain: MVSYVVALPEVMSAAATDVASIGSVVATASQGVAGATTTVLAAAEDEVSAAIAALFSGHGQDYQALSAQLAVFHERFVQALTGAAKGYAAAELANASLLQSEFASGIGNGFATIHQEIQRAPTALAAGFTQVPPFAAAQAGIFTGTPSG
# notes: LipY, Mycobacterium tuberculosis, residues 1-149 (PE domain with the linker up to the cleavage site); not shown: His tag, C-terminal, kept
# B2: LipY (enzyme)
# chain: MVSYVVALPEVMSAAATDVASIGSVVATASQGVAGATTTVLAAAEDEVSAAIAALFSGHGQDYQALSAQLAVFHERFVQALTGAAKGYAAAELANASLLQSEFASGIGNGFATIHQEIQRAPTALAAGFTQVPPFAAAQAGIFTGTPSGAAGFDIASLWPVKPLLSLSALETHFAIPNNPLLALIASDIPPLSWFLGNSPPPLLNSLLGQTVQYTTYDGMSVVQITPAHPTGEYVVAIHGGAFILPPSIFHWLNYSVTAYQTGATVQVPIYPLVQEGGTAGTVVPAMAGLISTQIAQHGVSNVSVVGDSAGGNLALAAAQYMVSQGNPVPSSMVLLSPWLDVGTWQISQAWAGNLAVNDPLVSPLYGSLNGLPPTYVYSGSLDPLAQQAVVLEHTAVVQGAPFSFVLAPWQIHDWILLTPWGLLSWPQINQQLGIAA
# notes: LipY, PE protein with a C-terminal triglyceride lipase domain, Mycobacterium tuberculosis; 45 kDa; full length (LipYΔPE ends at residue 437); also called full length LipY; not shown: His tag, C-terminal, kept
# Molecular target: the molecule itself
# Experiment: SEC; […] (20 mM HEPES pH 7, 100 mM NaCl, 10% glycerol); […]
row,Protein,binding result
1,B1,binds
2,B2,binds
